From patent US20110300138A1 (published 2011)
Read-outs that look alike come from different tables or passages of the source.

Assays:
Test in all cases: cell-based or functional assay
[1] = target: TSHR with Arg255 mutated to Ala (human) (UniProt P16473)
[2] = target: TSHR with His105 mutated to Ala (expressed in CHO cells) (human) (UniProt P16473)
[3] = target: TSHR with Glu61 mutated to Ala, expressed in CHO cells (human) (UniProt P16473)
[4] = target: TSHR with Trp258 mutated to Ala (human) (UniProt P16473)
[5] = target: TSHR with Glu157 mutated to Ala, expressed in CHO cells (human) (UniProt P16473)
[6] = target: TSHR with Ile60 mutated to Ala, expressed in CHO cells (human) (UniProt P16473)
[7] = target: TSHR with Tyr82 mutated to Ala expressed in CHO cells (human) (UniProt P16473)
[8] = target: TSHR with Thr257 mutated to Ala (human) (UniProt P16473)
[9] = target: TSHR with Tyr206 mutated to Ala (expressed in CHO cells) (human) (UniProt P16473)
[10] = target: TSHR with Phe130 mutated to Ala, expressed in CHO cells (human) (UniProt P16473)
Sequence of TSHR with Phe130 mutated to Ala, expressed in CHO cells (human) (P16473 other isoform, or with tags, fused parts or gaps, change not shown): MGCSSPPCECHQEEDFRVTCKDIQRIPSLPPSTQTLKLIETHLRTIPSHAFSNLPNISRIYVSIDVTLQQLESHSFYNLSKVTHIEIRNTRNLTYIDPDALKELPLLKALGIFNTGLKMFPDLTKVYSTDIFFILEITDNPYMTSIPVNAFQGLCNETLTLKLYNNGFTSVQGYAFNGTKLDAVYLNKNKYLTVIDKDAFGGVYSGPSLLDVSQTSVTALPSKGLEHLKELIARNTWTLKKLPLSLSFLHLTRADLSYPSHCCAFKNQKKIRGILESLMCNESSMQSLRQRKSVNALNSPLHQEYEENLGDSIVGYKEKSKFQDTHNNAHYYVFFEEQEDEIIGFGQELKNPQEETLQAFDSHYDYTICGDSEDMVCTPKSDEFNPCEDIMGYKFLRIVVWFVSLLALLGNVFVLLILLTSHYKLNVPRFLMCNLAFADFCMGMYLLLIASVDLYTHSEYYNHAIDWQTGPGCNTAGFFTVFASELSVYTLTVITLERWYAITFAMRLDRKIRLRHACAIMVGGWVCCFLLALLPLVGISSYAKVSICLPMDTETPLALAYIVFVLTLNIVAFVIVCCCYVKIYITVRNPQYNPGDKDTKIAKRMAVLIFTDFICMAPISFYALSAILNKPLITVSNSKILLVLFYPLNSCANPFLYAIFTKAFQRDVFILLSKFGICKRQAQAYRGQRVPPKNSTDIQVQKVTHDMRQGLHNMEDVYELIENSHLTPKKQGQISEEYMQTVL

Sequence of TSHR with Thr257 mutated to Ala (human) (P16473 other isoform, or with tags, fused parts or gaps, change not shown): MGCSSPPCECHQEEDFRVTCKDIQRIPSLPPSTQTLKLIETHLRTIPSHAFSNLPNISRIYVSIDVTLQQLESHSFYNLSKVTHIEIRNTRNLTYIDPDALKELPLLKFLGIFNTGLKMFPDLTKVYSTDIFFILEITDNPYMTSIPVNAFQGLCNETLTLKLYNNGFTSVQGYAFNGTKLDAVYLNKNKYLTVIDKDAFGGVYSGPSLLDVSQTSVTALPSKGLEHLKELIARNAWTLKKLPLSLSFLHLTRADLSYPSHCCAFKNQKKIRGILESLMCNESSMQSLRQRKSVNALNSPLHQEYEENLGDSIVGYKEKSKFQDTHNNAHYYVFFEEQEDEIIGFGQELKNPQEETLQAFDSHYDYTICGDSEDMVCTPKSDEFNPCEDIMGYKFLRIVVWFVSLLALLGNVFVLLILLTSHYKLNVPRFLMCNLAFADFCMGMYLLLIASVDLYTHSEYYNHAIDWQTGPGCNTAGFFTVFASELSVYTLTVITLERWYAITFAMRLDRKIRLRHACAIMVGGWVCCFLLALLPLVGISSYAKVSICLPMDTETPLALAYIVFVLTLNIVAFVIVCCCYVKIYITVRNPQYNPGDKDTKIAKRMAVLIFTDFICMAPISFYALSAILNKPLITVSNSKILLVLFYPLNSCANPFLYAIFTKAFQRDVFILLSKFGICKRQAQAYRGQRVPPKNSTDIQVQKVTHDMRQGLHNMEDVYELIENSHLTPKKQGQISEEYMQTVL
Sequence of TSHR with Glu157 mutated to Ala, expressed in CHO cells (human) (P16473 other isoform, or with tags, fused parts or gaps, change not shown): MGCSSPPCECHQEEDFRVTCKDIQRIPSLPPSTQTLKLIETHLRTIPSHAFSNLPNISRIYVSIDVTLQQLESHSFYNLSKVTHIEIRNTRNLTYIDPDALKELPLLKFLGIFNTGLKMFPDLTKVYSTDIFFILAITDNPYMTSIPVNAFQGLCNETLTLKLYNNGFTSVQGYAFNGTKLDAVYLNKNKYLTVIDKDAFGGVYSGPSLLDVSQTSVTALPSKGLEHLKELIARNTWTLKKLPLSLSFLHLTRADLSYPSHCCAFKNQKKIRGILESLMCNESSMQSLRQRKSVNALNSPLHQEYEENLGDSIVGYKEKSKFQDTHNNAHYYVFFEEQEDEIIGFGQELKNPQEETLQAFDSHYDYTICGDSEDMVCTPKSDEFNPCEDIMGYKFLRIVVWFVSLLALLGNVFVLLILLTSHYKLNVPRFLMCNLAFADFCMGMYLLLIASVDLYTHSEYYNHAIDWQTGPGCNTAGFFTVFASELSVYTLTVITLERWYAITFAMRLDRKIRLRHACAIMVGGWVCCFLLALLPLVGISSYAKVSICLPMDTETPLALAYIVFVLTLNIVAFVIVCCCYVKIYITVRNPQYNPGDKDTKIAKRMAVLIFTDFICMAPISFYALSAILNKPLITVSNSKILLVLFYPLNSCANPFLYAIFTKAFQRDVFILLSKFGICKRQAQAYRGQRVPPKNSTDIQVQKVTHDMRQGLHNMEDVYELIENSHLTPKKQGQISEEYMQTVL
Sequence of TSHR with Arg255 mutated to Ala (human) (P16473 other isoform, or with tags, fused parts or gaps, change not shown): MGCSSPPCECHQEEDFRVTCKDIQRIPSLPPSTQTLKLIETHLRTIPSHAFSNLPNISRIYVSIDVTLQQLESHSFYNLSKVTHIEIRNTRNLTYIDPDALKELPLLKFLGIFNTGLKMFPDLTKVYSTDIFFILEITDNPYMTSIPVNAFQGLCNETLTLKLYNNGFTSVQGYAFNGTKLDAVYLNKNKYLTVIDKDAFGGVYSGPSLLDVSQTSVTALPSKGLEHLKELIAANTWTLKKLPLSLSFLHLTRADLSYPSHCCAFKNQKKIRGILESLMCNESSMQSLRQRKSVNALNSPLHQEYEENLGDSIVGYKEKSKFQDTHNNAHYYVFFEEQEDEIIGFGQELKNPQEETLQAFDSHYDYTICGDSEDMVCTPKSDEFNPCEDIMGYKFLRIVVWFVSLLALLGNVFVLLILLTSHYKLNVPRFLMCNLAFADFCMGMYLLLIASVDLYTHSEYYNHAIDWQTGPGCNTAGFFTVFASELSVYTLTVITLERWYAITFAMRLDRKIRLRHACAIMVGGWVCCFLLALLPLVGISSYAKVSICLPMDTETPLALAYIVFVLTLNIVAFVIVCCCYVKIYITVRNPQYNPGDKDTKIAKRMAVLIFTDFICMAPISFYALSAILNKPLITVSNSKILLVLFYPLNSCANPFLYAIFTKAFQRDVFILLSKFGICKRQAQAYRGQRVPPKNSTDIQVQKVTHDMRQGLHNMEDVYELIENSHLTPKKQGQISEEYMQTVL
Sequence of TSHR with His105 mutated to Ala (expressed in CHO cells) (human) (P16473 other isoform, or with tags, fused parts or gaps, change not shown): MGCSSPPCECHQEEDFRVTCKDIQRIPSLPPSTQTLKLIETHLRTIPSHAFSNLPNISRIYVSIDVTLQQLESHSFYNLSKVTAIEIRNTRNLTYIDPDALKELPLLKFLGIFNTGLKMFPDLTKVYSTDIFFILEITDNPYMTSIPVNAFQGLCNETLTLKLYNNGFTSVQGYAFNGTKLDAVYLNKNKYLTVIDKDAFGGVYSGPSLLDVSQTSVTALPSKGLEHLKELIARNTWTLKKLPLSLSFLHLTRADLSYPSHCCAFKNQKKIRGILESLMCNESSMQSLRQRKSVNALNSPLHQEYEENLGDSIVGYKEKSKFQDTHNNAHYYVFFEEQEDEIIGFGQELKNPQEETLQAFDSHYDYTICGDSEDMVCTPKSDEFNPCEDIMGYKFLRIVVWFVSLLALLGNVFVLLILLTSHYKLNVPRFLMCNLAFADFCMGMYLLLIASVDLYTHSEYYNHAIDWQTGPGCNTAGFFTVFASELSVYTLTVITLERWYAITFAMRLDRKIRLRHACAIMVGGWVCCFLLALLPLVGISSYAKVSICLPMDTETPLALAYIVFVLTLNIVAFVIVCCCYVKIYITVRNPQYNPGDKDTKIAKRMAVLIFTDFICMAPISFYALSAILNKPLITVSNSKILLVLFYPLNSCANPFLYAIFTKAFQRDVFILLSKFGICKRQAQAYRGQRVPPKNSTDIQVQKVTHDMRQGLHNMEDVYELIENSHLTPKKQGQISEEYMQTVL
Sequence of TSHR with Tyr82 mutated to Ala expressed in CHO cells (human) (P16473 other isoform, or with tags, fused parts or gaps, change not shown): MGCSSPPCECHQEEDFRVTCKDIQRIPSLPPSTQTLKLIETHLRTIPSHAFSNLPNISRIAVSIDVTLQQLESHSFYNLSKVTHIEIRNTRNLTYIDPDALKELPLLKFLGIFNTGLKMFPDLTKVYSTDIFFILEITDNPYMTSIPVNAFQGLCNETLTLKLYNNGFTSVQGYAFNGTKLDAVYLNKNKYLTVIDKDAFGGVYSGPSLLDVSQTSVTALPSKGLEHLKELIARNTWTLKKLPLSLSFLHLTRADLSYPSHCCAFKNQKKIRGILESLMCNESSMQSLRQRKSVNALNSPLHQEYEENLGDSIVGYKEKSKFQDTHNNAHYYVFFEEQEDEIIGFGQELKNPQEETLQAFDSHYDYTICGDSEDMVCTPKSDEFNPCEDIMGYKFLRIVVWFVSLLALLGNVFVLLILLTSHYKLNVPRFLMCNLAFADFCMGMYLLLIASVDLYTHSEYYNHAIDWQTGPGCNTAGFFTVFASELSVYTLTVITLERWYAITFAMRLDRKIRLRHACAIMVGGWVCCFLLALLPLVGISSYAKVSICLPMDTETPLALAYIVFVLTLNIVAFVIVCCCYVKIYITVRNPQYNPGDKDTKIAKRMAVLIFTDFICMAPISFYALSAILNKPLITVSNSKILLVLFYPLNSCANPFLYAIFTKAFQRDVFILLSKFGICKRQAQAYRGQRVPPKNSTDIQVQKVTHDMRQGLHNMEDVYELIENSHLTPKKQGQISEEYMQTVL

In the case of TSH (ligand), the Mutated/Wild type (%) of cyclic AMP produced, TSH 0.01 ng/mL [1] is reported as 161%, the Mutated/Wild type (%) of cyclic AMP produced, TSH 0.03 ng/mL [1] is reported as 141% and the Mutated/Wild type (%) of cyclic AMP produced, TSH 0.1 ng/mL [1] is reported as 126%. For the same substance, the Mutated/Wild type (%) of cyclic AMP produced, TSH 0.3 ng/mL [1] was 101%, the Mutated/Wild type (%) of cyclic AMP produced, TSH 1 ng/mL [1] was 90% and the Mutated/wild type (%) of cyclic AMP produced; TSH 3 ng/mL [1] was 91%. It also gave a Cyclic AMP produced (pmol/mL), TSH 0.01 ng/mL [2] of 4.8 pmol/mL, a Cyclic AMP produced (pmol/mL), TSH 0.03 ng/mL [2] of 3.55 pmol/mL and a Cyclic AMP produced (pmol/mL), TSH 0.1 ng/mL [2] of 4.82 pmol/mL. For the same substance, the Cyclic AMP produced (pmol/mL), TSH 0.3 ng/mL [2] was 11.9 pmol/mL, the Cyclic AMP produced (pmol/mL), TSH 1 ng/mL [2] was 34.6 pmol/mL and the Cyclic AMP produced (pmol/mL), TSH 3 ng/mL [2] was 58.3 pmol/mL. The Mutated/Wild type (%), TSH 0.01 ng/mL [2] was 308%, the Mutated/Wild type (%), TSH 0.03 ng/mL [2] was 147% and the Mutated/Wild type (%), TSH 0.1 ng/mL [2] was 118%. For the same substance, the Mutated/Wild type (%), TSH 0.3 ng/mL [2] was 104%, the Mutated/Wild type (%), TSH 1 ng/mL [2] was 76% and the Mutated/Wild type (%), TSH 3 ng/mL [2] was 75%. The % inhibition of TSH stimulation; TSH (2), run at the end of assay [3] was 17%, the Mutated/Wild type (%) of cyclic AMP produced, TSH 0.01 ng/mL [3] was 470% and the Mutated/Wild type (%) of cyclic AMP produced, TSH 0.03 ng/mL [3] was 369%. For the same substance, the Mutated/Wild type (%) of cyclic AMP produced, TSH 0.1 ng/mL [3] was 271%, the Mutated/Wild type (%) of cyclic AMP produced, TSH 0.3 ng/mL [3] was 188% and the Mutated/Wild type (%) of cyclic AMP produced, TSH 1 ng/mL [3] was 129%. It also gave a Mutated/wild type (%) of cyclic AMP produced; TSH 3 ng/mL [3] of 110%, a Mutated/wild type (%) of cyclic AMP produced; TSH (2) 3 ng/mL, run at the end of assay [3] of 51% and a Mutated/wild type (%) of cyclic AMP produced; TSH 3 ng/mL ([3]; record 2) of 67%. It also gave a Cyclic AMP produced, TSH 0.01 ng/mL, Experiment 1 [4] of 1.93 pmol/mL, a Cyclic AMP produced, TSH 0.01 ng/mL, Experiment 2 [4] of 1.56 pmol/mL and a Cyclic AMP produced, TSH 0.03 ng/mL, Experiment 1 [4] of 2.88 pmol/mL. The Cyclic AMP produced, TSH 0.03 ng/mL, Experiment 2 [4] was 2.76 pmol/mL, the Cyclic AMP produced, TSH 0.1 ng/mL, Experiment 1 [4] was 7.51 pmol/mL and the Cyclic AMP produced, TSH 0.1 ng/mL, Experiment 2 [4] was 7.04 pmol/mL. It also gave a Cyclic AMP produced, TSH 0.3 ng/mL, Experiment 1 [4] of 22.3 pmol/mL, a Cyclic AMP produced, TSH 0.3 ng/mL, Experiment 2 [4] of 17.3 pmol/mL and a Cyclic AMP produced, TSH 1 ng/mL, Experiment 1 [4] of 45.7 pmol/mL. For the same substance, the Cyclic AMP produced, TSH 1 ng/mL, Experiment 2 [4] was 49.2 pmol/mL, the Cyclic AMP produced; TSH 3 ng/mL; Experiment 1 [4] was 54 pmol/mL and the Cyclic AMP produced; TSH 3 ng/mL; Experiment 2 [4] was 84.7 pmol/mL. The Mutated/Wild type (%) of cyclic AMP produced, TSH 0.01 ng/mL, Experiment 1 [4] was 158%, the Mutated/Wild type (%) of cyclic AMP produced, TSH 0.01 ng/mL, Experiment 2 [4] was 77% and the Mutated/Wild type (%) of cyclic AMP produced, TSH 0.03 ng/mL, Experiment 1 [4] was 156%. For the same substance, the Mutated/Wild type (%) of cyclic AMP produced, TSH 0.03 ng/mL, Experiment 2 [4] was 141%, the Mutated/Wild type (%) of cyclic AMP produced, TSH 0.1 ng/mL, Experiment 1 [4] was 154% and the Mutated/Wild type (%) of cyclic AMP produced, TSH 0.1 ng/mL, Experiment 2 [4] was 156%. For the same substance, the Mutated/Wild type (%) of cyclic AMP produced, TSH 0.3 ng/mL, Experiment 1 [4] was 128%, the Mutated/Wild type (%) of cyclic AMP produced, TSH 0.3 ng/mL, Experiment 2 [4] was 128% and the Mutated/Wild type (%) of cyclic AMP produced, TSH 1 ng/mL, Experiment 1 [4] was 86%. It also gave a Mutated/Wild type (%) of cyclic AMP produced, TSH 1 ng/mL, Experiment 2 [4] of 114%, a Mutated/wild type (%) of cyclic AMP produced; TSH 3 ng/mL; Experiment 1 [4] of 76% and a Mutated/wild type (%) of cyclic AMP produced; TSH 3 ng/mL; Experiment 2 [4] of 100%. For the same substance, the Mutated/Wild type (%) of cyclic AMP produced, TSH 0.01 ng/mL [5] was 450%, the Mutated/Wild type (%) of cyclic AMP produced, TSH 0.03 ng/mL [5] was 328% and the Mutated/Wild type (%) of cyclic AMP produced, TSH 0.1 ng/mL [5] was 164%. For the same substance, the Mutated/Wild type (%) of cyclic AMP produced, TSH 0.3 ng/mL [5] was 118%, the Mutated/Wild type (%) of cyclic AMP produced, TSH 1 ng/mL [5] was 86% and the Mutated/wild type (%) of cyclic AMP produced; TSH 3 ng/mL [5] was 115%. The % inhibition of TSH stimulation; TSH (2), run at the end of assay; Experiment 1 [6] was 12%, the % inhibition of TSH stimulation; TSH (2), run at the end of assay; Experiment 2 [6] was 13% and the Mutated/Wild type (%) of cyclic AMP produced, TSH 0.01 ng/mL [6] was 358%. It also gave a Mutated/Wild type (%) of cyclic AMP produced, TSH 0.03 ng/mL [6] of 178%, a Mutated/Wild type (%) of cyclic AMP produced, TSH 0.1 ng/mL [6] of 201% and a Mutated/Wild type (%) of cyclic AMP produced, TSH 0.3 ng/mL [6] of 96%. For the same substance, the Mutated/Wild type (%) of cyclic AMP produced, TSH 1 ng/mL [6] was 77%, the Mutated/wild type (%) of cyclic AMP produced; TSH 3 ng/mL [6] was 83% and the Mutated/wild type (%) of cyclic AMP produced; TSH 3 ng/mL; Experiment 1 [6] was 57%. It also gave a Mutated/wild type (%) of cyclic AMP produced; TSH 3 ng/mL; Experiment 2 [6] of 81%, a Mutated/wild type (%) of cyclic AMP produced; TSH (2) 3 ng/mL, run at the end of assay; Experiment 1 [6] of 54% and a Mutated/wild type (%) of cyclic AMP produced; TSH (2) 3 ng/mL, run at the end of assay; Experiment 2 [6] of 69%. For the same substance, the % inhibition of TSH stimulation; TSH (2); Experiment 1 [7] was 44%, the % inhibition of TSH stimulation; TSH (2); Experiment 2 [7] was 22% and the Cyclic AMP produced; TSH 3 ng/mL; Experiment 1 [7] was 166 pmol/mL. It also gave a Cyclic AMP produced; TSH 3 ng/mL; Experiment 2 [7] of 74.6 pmol/mL, a Cyclic AMP produced; TSH (2); Experiment 1 [7] of 92.3 pmol/mL and a Cyclic AMP produced; TSH (2); Experiment 2 [7] of 57.9 pmol/mL. The Mutated/wild type (%) of cyclic AMP produced; TSH 3 ng/mL; Experiment 1 [7] was 108%, the Mutated/wild type (%) of cyclic AMP produced; TSH 3 ng/mL; Experiment 2 [7] was 125% and the Mutated/wild type (%) of cyclic AMP produced; TSH (2); Experiment 1 [7] was 58%. The Mutated/wild type (%) of cyclic AMP produced; TSH (2); Experiment 2 [7] was 94%, the Mutated/Wild type (%) of cyclic AMP produced, TSH 0.01 ng/mL [8] was 90% and the Mutated/Wild type (%) of cyclic AMP produced, TSH 0.03 ng/mL [8] was 93%. It also gave a Mutated/Wild type (%) of cyclic AMP produced, TSH 0.1 ng/mL [8] of 92%, a Mutated/Wild type (%) of cyclic AMP produced, TSH 0.3 ng/mL [8] of 105% and a Mutated/Wild type (%) of cyclic AMP produced, TSH 1 ng/mL [8] of 94%. For the same substance, the Mutated/wild type (%) of cyclic AMP produced; TSH 3 ng/mL [8] was 86%, the Mutated/Wild type (%) of cyclic AMP produced, TSH 0.01 ng/mL, Experiment 1 [9] was 83% and the Mutated/Wild type (%) of cyclic AMP produced, TSH 0.01 ng/mL, Experiment 2 [9] was 135%. It also gave a Mutated/Wild type (%) of cyclic AMP produced, TSH 0.03 ng/mL, Experiment 1 [9] of 124%, a Mutated/Wild type (%) of cyclic AMP produced, TSH 0.03 ng/mL, Experiment 2 [9] of 144% and a Mutated/Wild type (%) of cyclic AMP produced, TSH 0.1 ng/mL, Experiment 1 [9] of 93%. It also gave a Mutated/Wild type (%) of cyclic AMP produced, TSH 0.1 ng/mL, Experiment 2 [9] of 178%, a Mutated/Wild type (%) of cyclic AMP produced, TSH 0.3 ng/mL, Experiment 1 [9] of 104% and a Mutated/Wild type (%) of cyclic AMP produced, TSH 0.3 ng/mL, Experiment 2 [9] of 110%. It also gave a Mutated/Wild type (%) of cyclic AMP produced, TSH 1 ng/mL, Experiment 1 [9] of 66%, a Mutated/Wild type (%) of cyclic AMP produced, TSH 1 ng/mL, Experiment 2 [9] of 93% and a Mutated/wild type (%) of cyclic AMP produced; TSH 3 ng/mL; Experiment 1 [9] of 62%. For the same substance, the Mutated/wild type (%) of cyclic AMP produced; TSH 3 ng/mL; Experiment 2 [9] was 97%, the Cyclic AMP produced, TSH 0.01 ng/mL, mutated TSHR [10] was 3.05 pmol/mL and the Cyclic AMP produced, TSH 0.03 ng/mL, mutated TSHR [10] was 4.12 pmol/mL. The Cyclic AMP produced, TSH 0.1 ng/mL, mutated TSHR [10] was 9.61 pmol/mL, the Cyclic AMP produced, TSH 0.3 ng/mL, mutated TSHR [10] was 35.6 pmol/mL and the Cyclic AMP produced, TSH 1 ng/mL, mutated TSHR [10] was 66.2 pmol/mL. For the same substance, the Cyclic AMP produced, TSH 3 ng/mL, mutated TSHR [10] was 80.4 pmol/mL, the Mutated/Wild type (%), TSH 0.01 ng/mL [10] was 134% and the Mutated/Wild type (%), TSH 0.03 ng/mL [10] was 109%. It also gave a Mutated/Wild type (%), TSH 0.1 ng/mL [10] of 101%, a Mutated/Wild type (%), TSH 0.3 ng/mL [10] of 124% and a Mutated/Wild type (%), TSH 1 ng/mL [10] of 86%. For the same substance, the Mutated/Wild type (%), TSH 3 ng/mL [10] was 86%.
